The values below are quoted from earlier work in publication PMC5979445.

A word on the Kd: it is a measure of binding affinity in units of concentration.

In the series the target is Calmodulin (UniProt P0DP23).

For the substance “TRPV1 CaM binding domain (from UniProt Q8NER1)”, the Kd is 0.054 µM.
